{"source": "paper PMC7674511", "biological_target": "Pro-LC3B, Q9GZQ8", "test": "fluorescence anisotropy", "conditions": "chain shown with the change; FITC-labeled peptide 1 μM; read at the highest Pro-LC3B concentration plotted (about 50 μM); parent: est. 0.071; read off a plot", "data": [{"binder": "VHDRNANSAVMAGTFNLPSD", "note": "[BAG6 LIR1 peptide (residues 124-143), P46379-2 Y132A; V135A]", "values": [{"measurement": "response", "value": -0.002}]}]}
